T1: Aurora-A catalytic domain (CD, 128-403aa), unlabelled, as used in the NMR titration (human, UniProt O14965 128-403)
T1 construct: also called Aurora-A CD; AuroraA Kinase; source: purified
T1 sequence (looked up): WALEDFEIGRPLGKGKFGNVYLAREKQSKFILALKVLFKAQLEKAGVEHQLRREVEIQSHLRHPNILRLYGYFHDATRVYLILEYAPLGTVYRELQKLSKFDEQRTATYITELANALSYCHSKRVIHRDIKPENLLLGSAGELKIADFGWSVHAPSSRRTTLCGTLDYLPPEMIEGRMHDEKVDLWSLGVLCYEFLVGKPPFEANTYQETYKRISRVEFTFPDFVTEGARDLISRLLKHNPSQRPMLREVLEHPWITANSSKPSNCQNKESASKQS

T2: His-hAurora-A-CD (Aurora-A catalytic domain, 122-403aa) (human, UniProt O14965 122-403)
T2 construct: Cloned into pET-28a at the BamHI site; also called His-Aurora-A-CD; hAurora-CD; source: E. coli Rosetta (DE3), purified
T2 sequence (looked up): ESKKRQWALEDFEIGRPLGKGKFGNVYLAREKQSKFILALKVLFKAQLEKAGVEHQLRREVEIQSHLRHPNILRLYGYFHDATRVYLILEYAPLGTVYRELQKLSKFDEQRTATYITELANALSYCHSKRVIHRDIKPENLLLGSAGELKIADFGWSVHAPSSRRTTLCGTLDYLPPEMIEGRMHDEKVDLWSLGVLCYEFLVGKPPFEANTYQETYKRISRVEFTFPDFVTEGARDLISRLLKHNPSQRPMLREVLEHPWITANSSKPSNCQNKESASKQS


Columns and labels:
[1] = target: T1, Aurora-A catalytic domain (CD, …); assay: NMR titration; 1H-15N HSQC of labelled Aurora-A IDR (0.1 mM) without and with unlabelled catalytic domain, 1:2 IDR:CD molar ratio; 278 K; 20 mM NaH2PO4, 50 mM NaCl, 2 mM EDTA, 1 mM DTT, pH 6.4; conditions: both partners purified
[2] = target: T2, His-hAurora-A-CD (Aurora-A catalytic …); assay: pull-down; 5 μg His-hAurora-A-CD with 5 μg GST-BuGZ-N or GST on glutathione-agarose, 200 μL 0.1% PBST (Triton X-100), 4°C, 2 h; Western blot and Coomassie; conditions: both partners purified

Binder | binding result [1] | binding result [2]
Aurora-A IDR (intrinsic disordered region, 1-127aa) (domain or fragment, human, UniProt O14965 1-127, looked up, Aurora-A (Aurora kinase A), human, N-terminal intrinsic disordered region; 1-127aa in the NMR text and legend, 1-126aa in the constructs section; The methods list the construct pET-28a-hAurora-IDR as 1-126aa; the NMR results and legend say 1-127aa; Uniformly isotope-labelled for NMR; also called hAurora-IDR; source: E. coli BL21(DE3), isotope-labelled (15N, 13C), purified, His tag removed by TEV …) MDRSKENCISGPVKATAPVGGPKRVLVTQQFPCQNPLPVNSGQAQRVLCPSNSSQRIPLQAQKLVSSHKPVQNQKQKQLQATSVPHPVSRPLNNTQKSKQPLPSAPENNPEEELASKQKNEESKKRQ | binds | –
GST-BuGZ-N (hBuGZ N-terminus, 1-92aa) (domain or fragment, BuGZ (ZNF207), human, N-terminus with the zinc fingers, residues 1-92; Cloned into pGEX-6P-1 at the EcoRI site; also called GST-BuGZ-N-terminus; source: E. coli Rosetta (DE3), purified) not shown | – | binds
